# Experimental data taken from IntAct's records for PubMed 25283965.
# B1: C-C chemokine receptor type 2 (Homo sapiens), P41597-2 (parent)
# chain: MLSTSRSRFIRNTNESGEEVTTFFDYDYGAPCHKFDVKQIGAQLLPPLYSLVFIFGFVGNMLVVLILINCKKLKCLTDIYLLNLAISDLLFLITLPLWAHSAANEWVFGNAMCKLFTGLYHIGYFGGIFFIILLTIDRYLAIVHAVFALKARTVTFGVVTSVITWLVAVFASVPGIIFTKCQKEDSVYVCGPYFPRGWNNFHTIMRNILGLVLPLLIMVICYSGILKTLLRCRNEKKRHRAVRVIFTIMIVYFLFWTPYNIVILLNTFQEFFGLSNCESTSQLDQATQVTETLGMTHCCINPIIYAFVGEKFRRYLSVFFRKHITKRFCKQCPVFYRETVDGVTSTNTPSTGEQEVSAGL
# partner: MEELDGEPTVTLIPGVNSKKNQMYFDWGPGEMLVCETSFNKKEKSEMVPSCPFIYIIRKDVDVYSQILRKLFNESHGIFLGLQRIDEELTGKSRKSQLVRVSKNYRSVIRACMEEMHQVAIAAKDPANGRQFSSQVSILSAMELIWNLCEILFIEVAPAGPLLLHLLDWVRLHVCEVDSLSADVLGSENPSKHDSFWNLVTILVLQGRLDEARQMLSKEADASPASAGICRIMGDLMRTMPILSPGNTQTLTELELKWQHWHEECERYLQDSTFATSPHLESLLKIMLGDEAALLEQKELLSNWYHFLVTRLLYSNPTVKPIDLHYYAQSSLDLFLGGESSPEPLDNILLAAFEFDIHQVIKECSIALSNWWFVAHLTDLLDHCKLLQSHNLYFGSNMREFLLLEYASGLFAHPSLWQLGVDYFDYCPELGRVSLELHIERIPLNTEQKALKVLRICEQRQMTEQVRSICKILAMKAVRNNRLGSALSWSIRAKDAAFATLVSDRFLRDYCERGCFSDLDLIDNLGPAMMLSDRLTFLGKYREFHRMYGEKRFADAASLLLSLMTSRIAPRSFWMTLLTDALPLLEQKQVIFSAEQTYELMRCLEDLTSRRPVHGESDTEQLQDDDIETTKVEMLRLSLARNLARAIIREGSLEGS
# Variants of: B1
# Settings: with nup85_human NUP85, Q9BW27
row,Variant,effect of a mutation on the interaction
1,MLSTSRSRFIRNTNESGEEVTTFFDYDYGAPCHKFDVKQIGAQLLPPLYSLVFIFGFVGNMLVVLILINCKKLKCLTDIYLLNLAISDLLFLITLPLWAHSAANEWVFGNAMCKLFTGLYHIGYFGGIFFIILLTIDRYLAIVHAVFALKARTVTFGVVTSVITWLVAVFASVPGIIFTKCQKEDSVYVCGPYFPRGWNNFHTIMRNILGLVLPLLIMVICYSGILKTLLRCRNEKKRHRAVRVIFTIMIVYFLFWTPYNIVILLNTFQEFFGLSNCESTSQLDQATQVTETLGMTHCCINPIIYAFVGEKFRRYTSVFFRKHITKRFCKQCPVFYRETVDGVTSTNTPSTGEQEVSAGL [L316T],decreasing interaction strength

# Variants of: B1
# Settings: with nup85_human NUP85, Q9BW27
# Remark: another data set of the same source
row,Variant,effect of a mutation on the interaction
1,MLSTSRSRFIRNTNESGEEVTTFFDYDYGAPCHKFDVKQIGAQLLPPLYSLVFIFGFVGNMLVVLILINCKKLKCLTDIYLLNLAISDLLFLITLPLWAHSAANEWVFGNAMCKLFTGLYHIGYFGGIFFIILLTIDRYLAIVHAVFALKARTVTFGVVTSVITWLVAVFASVPGIIFTKCQKEDSVYVCGPYFPRGWNNFHTIMRNILGLVLPLLIMVICYSGILKTLLRCRNEKKRHRAVRVIFTIMIVYFLFWTPYNIVILLNTFQEFFGLSNCESTSQLDQATQVTETLGMTHCCINPIIYAFVGEKFRRYLSVDFRKHITKRFCKQCPVFYRETVDGVTSTNTPSTGEQEVSAGL [F319D],decreasing interaction strength
